The target of assay [1] is Active phosphorylated His6-tagged ERK2 E320K (rat (p-0033 says mouse)) (UniProt P63086).
Assay [2] has as its target Active phosphorylated His6-tagged ERK2 WT (rat (p-0033 says mouse)) (UniProt P63086).
The target of assay [3] is Active phosphorylated His6-tagged ERK2 R133K (rat (p-0033 says mouse)) (UniProt P63086).
Assay [4] deals with Active phosphorylated His6-tagged ERK2 D319N (rat (p-0033 says mouse)) (UniProt P63086).
For assay [5], the target named is Active phosphorylated His6-tagged ERK2 WT (rat (p-0033 says mouse)) (UniProt P63086). This is another data set of the same source.
The target of assay [6] is Active phosphorylated His6-tagged ERK2 R133K (rat (p-0033 says mouse)) (UniProt P63086). The source holds these as a separate data set.
For assay [7], the target named is Active phosphorylated His6-tagged ERK2 E320K (rat (p-0033 says mouse)) (UniProt P63086). This is another data set of the same source.
Assay [8] concerns the target Active phosphorylated His6-tagged ERK2 R133K (rat (p-0033 says mouse)) (UniProt P63086). The source holds these as a separate data set.
For assay [9], the target named is Active phosphorylated His6-tagged ERK2 WT (rat (p-0033 says mouse)) (UniProt P63086). This is another data set of the same source.
Assay [10] has as its target Active phosphorylated His6-tagged ERK2 D319N (rat (p-0033 says mouse)) (UniProt P63086). The source holds these as a separate data set.
The target of assay [11] is Active phosphorylated His6-tagged ERK2 WT (rat (p-0033 says mouse)) (UniProt P63086). This is another data set of the same source.
Assay [12] has as its target Active phosphorylated His6-tagged ERK2 D319N (rat (p-0033 says mouse)) (UniProt P63086). This is another data set of the same source.
In assay [13] the target is Active phosphorylated His6-tagged ERK2 R133K (rat (p-0033 says mouse)) (UniProt P63086). This is another data set of the same source.
The target in assay [14] is Active phosphorylated His6-tagged ERK2 E320K (rat (p-0033 says mouse)) (UniProt P63086). The source holds these as a separate data set.
Assay [15] addresses Active phosphorylated His6-tagged ERK2 WT (rat (p-0033 says mouse)) (UniProt P63086). This is another data set of the same source.
Assay [16] addresses Active phosphorylated His6-tagged ERK2 R133K (rat (p-0033 says mouse)) (UniProt P63086). This is another data set of the same source.
Assay [17] addresses Active phosphorylated His6-tagged ERK2 D319N (rat (p-0033 says mouse)) (UniProt P63086). The source holds these as a separate data set.
Assay [18] has as its target Active phosphorylated His6-tagged ERK2 E320K (rat (p-0033 says mouse)) (UniProt P63086). The source holds these as a separate data set.
The target in assay [19] is Active phosphorylated His6-tagged ERK2 WT (rat (p-0033 says mouse)) (UniProt P63086). This is another data set of the same source.
For assay [20], the target named is Active phosphorylated His6-tagged ERK2 E320K (rat (p-0033 says mouse)) (UniProt P63086). This is another data set of the same source.
Assay [21] has as its target Active phosphorylated His6-tagged ERK2 R133K (rat (p-0033 says mouse)) (UniProt P63086). This is another data set of the same source.
For assay [22], the target named is Active phosphorylated His6-tagged ERK2 D319N (rat (p-0033 says mouse)) (UniProt P63086). This is another data set of the same source.
Assay [23] addresses Active phosphorylated His6-tagged ERK2 R133K (rat (p-0033 says mouse)) (UniProt P63086). This is another data set of the same source.
Assay [24] deals with Active phosphorylated His6-tagged ERK2 WT (rat (p-0033 says mouse)) (UniProt P63086). This is another data set of the same source.
The target of assay [25] is Active phosphorylated His6-tagged ERK2 D319N (rat (p-0033 says mouse)) (UniProt P63086). This is another data set of the same source.
Assay [26] addresses Active phosphorylated His6-tagged ERK2 E320K (rat (p-0033 says mouse)) (UniProt P63086). The source holds these as a separate data set.

Where two headings read alike, the source gives them in different places.

On to AEBP1, for which the half-maximal inhibitory concentration (IC50) is 160 µM in assay [1], 16 µM in [2], 110 µM in assay [3] and 120 µM in [4].
With ANAPC5, the IC50 in assay [5] came out at 32 µM; in assay [6], 340 µM.
Regarding CBX7, the IC50 in assay [7] came out at 14 µM; in [8], 5.7 µM; in assay [9] it was 5.1 µM; in [10], 9.8 µM.
For DISC1, the IC50 in assay [11] worked out at 23 µM; in [12] it was 79 µM; in assay [13] it was 74 µM; in assay [14], 110 µM.
For ELMSAN1, the IC50 in assay [15] came to 24 µM; in assay [16], 27 µM; in [17] it was 30 µM; in assay [18] it was 40 µM.
Take MLXIPL: the IC50 in [19] was determined as 18 µM; in assay [20] it was 28 µM; in assay [21], 23 µM; in [22], 26 µM.
ZBED6: the IC50 in assay [23] is 6.2 µM; in assay [24] it was 6.8 µM; in [25], 23 µM; in [26] it was 56 µM.

Values taken from publication PMC11982978, “Cancer hotspot mutations rewire ERK2 specificity by selective exclusion of docking interactions” (The Journal of Biological Chemistry, 2025).
